The values below come from PMC4215182.

Residue numbers refer to the chain shown, from its start.

The target of data set [1] is T1, CPSF30 (within CPSF complex) (human? (HEK293), UniProt O95639 1-269). Kind of data set: UV cross-linking.
The target in data set [2] is T2, Wdr33 (within CPSF complex) (human? (HEK293), UniProt Q9C0J8 1-1336).
T2 sequence: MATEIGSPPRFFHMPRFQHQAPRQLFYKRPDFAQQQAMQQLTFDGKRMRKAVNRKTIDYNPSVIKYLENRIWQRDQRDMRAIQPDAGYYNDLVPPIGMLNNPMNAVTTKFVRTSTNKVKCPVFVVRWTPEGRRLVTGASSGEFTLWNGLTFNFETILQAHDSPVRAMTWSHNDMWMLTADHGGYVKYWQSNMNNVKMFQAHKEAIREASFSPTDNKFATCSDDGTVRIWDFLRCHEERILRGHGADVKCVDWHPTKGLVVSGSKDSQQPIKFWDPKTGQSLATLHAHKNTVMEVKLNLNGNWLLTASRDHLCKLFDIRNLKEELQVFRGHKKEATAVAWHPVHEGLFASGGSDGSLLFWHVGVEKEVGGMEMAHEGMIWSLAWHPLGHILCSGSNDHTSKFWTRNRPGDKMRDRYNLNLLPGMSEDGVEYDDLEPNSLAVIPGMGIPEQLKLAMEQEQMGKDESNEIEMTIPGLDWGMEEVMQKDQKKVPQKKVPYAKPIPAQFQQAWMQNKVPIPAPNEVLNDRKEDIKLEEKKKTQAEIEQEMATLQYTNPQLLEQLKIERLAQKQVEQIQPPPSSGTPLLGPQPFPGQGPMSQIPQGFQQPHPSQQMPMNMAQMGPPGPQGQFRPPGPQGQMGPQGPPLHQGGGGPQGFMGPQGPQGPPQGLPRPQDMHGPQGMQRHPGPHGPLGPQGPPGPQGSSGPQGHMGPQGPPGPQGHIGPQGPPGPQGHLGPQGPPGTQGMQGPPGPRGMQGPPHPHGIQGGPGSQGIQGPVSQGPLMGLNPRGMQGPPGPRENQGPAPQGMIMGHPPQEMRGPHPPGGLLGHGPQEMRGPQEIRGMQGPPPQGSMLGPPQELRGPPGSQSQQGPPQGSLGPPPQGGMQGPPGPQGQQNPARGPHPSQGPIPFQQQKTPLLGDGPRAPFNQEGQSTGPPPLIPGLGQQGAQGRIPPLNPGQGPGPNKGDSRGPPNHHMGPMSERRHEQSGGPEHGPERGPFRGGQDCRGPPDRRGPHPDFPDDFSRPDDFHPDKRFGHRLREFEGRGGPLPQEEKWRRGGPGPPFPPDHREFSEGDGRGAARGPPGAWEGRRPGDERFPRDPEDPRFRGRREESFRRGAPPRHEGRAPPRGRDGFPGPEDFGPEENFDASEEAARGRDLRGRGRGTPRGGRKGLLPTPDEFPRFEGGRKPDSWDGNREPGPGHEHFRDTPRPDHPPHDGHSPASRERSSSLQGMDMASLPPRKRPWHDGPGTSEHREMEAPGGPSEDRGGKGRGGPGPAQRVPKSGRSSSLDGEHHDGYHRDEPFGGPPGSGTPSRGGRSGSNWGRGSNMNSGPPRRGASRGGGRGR
The experiment in a line: UV cross-linking.

Data set [3] deals with T1, CPSF30 (within CPSF complex). Kind of data set: UV cross-linking, RNase, IP.
Data set [4] has as its target T3, Fip1 (within CPSF complex) (human? (HEK293), UniProt Q6UN15 1-594).
T3 sequence: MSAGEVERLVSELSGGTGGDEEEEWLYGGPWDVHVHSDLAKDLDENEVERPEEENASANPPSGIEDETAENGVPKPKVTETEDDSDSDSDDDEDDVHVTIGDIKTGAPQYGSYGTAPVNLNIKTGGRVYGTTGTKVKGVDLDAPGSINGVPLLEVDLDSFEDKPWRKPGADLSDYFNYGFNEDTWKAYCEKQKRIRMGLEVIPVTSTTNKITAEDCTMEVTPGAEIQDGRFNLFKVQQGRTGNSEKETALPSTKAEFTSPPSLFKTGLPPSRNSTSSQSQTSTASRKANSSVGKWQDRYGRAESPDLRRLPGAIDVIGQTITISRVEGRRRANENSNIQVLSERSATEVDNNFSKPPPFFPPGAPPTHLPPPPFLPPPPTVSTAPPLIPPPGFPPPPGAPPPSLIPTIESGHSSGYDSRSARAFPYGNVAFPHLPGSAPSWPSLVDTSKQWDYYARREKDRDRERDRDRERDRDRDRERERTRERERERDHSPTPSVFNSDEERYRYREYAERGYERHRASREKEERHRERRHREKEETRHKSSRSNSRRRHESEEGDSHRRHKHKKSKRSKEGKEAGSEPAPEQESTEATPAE
Kind of data set: UV cross-linking, RNase I, IP.

Data set [5] concerns the target T2, Wdr33 (within CPSF complex). Kind of data set: UV cross-linking, RNase, IP.
Data set [6] addresses CPSF complex (CPSF73-3xFlag immunopurified) (human? (HEK293), UniProt Q10570;Q9C0J8;Q9P2I0;Q9UKF6;Q6UN15;O95639;Q92797 …). The experiment in a line: EMSA. For orientation: Mobility shift assays separate free from complexed probe on a gel.
The target in a further data set is Flag-CPSF30 full length (UniProt O95639-2 1-244). The experiment in a line: UV cross-linking.
Data set [7] has as its target Flag-CPSF30 (baculovirus) (UniProt O95639-2 1-244). The experiment in a line: UV cross-linking.
For data set [8], the target named is CPSF complex with HA-CPSF30 full length (human? (HEK293), UniProt Q10570;Q9C0J8;Q9P2I0;Q9UKF6;Q6UN15;O95639-2;Q92797 …). The experiment in a line: UV cross-linking.

B1: L3 mutant (AAUAAC) (ssRNA)
RNA: AUGUACUAGGAGACACAAUAACGGCAAUGUUUUUAUUUGUA
For the molecule B1, the binding result in [1] and in data set [2] was “no binding” in each case.

B2: L3 wild type (ssRNA)
RNA: B1 RNA with C22A
As for B2, the binding result in data set [3], in data set [4] and in data set [5] was “binds” in each case.

B3: SVL wild type (ssRNA)
RNA: CUGCAAUAAACAAGUUAA
Take B3: the binding result (in data set [6]; with Flag-CPSF30 full length; in data set [7]; in [8]) was “binds” in each case.

B4: SVL mutant (AAGAAA) (ssRNA)
RNA: CUGCAAGAAACAAGUUAA
For the molecule B4, in data set [6], the binding result is reported as “no binding”.
